The record followed here is paper PMC5765006 (2018).

The target in this test is soluble extracellular domain of human TM (Homo sapiens (Human), UniProt P07204). Put plainly: competition pull-down (native Ang1 inhibits thrombin/TM co-precipitation on Ni-NTA, western blot); direct pull-down only with BowAng1; indirect readout: displacement of thrombin (5 nM) from soluble TM. (In general: A western blot detects proteins with antibodies after separation by electrophoresis.)
soluble extracellular domain of human TM, sequence (P07204 19-515): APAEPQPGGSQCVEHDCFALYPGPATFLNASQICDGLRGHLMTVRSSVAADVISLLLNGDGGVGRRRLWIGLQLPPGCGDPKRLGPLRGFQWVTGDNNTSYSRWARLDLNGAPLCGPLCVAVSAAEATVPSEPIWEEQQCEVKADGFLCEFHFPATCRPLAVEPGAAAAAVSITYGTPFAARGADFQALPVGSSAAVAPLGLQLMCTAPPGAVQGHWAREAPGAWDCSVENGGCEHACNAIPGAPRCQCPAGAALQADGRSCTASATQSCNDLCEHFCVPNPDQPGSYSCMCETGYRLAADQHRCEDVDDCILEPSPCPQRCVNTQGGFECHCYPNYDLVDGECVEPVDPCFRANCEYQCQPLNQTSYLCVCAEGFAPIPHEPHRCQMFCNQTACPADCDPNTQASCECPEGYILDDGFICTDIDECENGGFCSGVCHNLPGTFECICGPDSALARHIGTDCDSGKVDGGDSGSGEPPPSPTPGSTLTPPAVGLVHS

B1: native human Ang1 (protein)
chain: HIGCSNQRRSPENSGRRYNRIQHGQCAYTFILPEHDGNCRESTTDQYNTNALQRDAPHVEPDFSSQKLQHLEHVMENYTQWLQKLENYIVENMKSEMAQIQQNAVQNHTATMLEIGTSLLSQTAEQTRKLTDVETQVLNQTSRLEIQLLENSLSTYKLEKQLLQQTNEILKIHEKNSLLEHKILEMEGKHKEELDTLKEEKENLQGLVTRQTYIIQELEKQLNRATTNNSVLQKQQLELMDTVHNLVNLCTKEGVLLKGGKREEEKPFRDCADVYQAGFNKSGIYTIYINNMPEPKKVFCNMDVNGGGWTVIQHREDGSLDFQRGWKEYKMGFGNPSGEYWLGNEFIFAITSQRQYMLRIELMDWEGNRAYSQYDRFHIGNEKQNYRLYLKGHTGTAGKQSSLILHGADFSTKDADNDNCMCKCALMLTGGWWFDACGPSNLNGMFYTAGQNHGKLNGIKWHYFKGPSYSLRSTTMMIRPLDF
For B1, the binding result is given as “binds”.
